To fix the notation:
T1: MCAK (purified from Sf21 cells) (human, UniProt Q99661 1-725)
T1 construct: Kif2c/MCAK, human; also called Kif2c; source: Sf21, purified (Ni-NTA, TEV cleavage, Superdex 200)
T1 sequence (looked up): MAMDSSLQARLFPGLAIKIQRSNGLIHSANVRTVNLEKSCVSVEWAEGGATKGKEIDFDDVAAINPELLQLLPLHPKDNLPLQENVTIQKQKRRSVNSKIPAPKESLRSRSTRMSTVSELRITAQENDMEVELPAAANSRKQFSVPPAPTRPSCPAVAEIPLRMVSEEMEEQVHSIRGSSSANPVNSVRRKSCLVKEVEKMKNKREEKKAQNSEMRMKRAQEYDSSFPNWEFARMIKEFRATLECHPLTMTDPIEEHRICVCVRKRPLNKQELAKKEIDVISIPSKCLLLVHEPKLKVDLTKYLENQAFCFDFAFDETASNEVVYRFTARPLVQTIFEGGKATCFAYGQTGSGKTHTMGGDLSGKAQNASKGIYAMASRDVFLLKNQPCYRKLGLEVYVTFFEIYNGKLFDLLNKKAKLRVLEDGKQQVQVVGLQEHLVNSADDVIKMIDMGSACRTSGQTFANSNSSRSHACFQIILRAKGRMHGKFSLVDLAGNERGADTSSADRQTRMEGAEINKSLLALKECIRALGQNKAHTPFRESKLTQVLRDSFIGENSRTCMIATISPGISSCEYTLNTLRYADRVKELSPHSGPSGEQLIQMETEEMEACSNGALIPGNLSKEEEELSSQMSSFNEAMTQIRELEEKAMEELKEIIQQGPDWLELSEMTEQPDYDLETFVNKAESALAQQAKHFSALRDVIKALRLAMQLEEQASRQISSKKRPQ

B1: Kif2a (purified from Sf21 cells) (natural protein, human, UniProt O00139-1 1-679, looked up)
chain: MVTSLNEDNESVTVEWIENGDTKGKEIDLESIFSLNPDLVPDEEIEPSPETPPPPASSAKVNKIVKNRRTVASIKNDPPSRDNRVVGSARARPSQFPEQSSSAQQNGSVSDISPVQAAKKEFGPPSRRKSNCVKEVEKLQEKREKRRLQQQELREKRAQDVDATNPNYEIMCMIRDFRGSLDYRPLTTADPIDEHRICVCVRKRPLNKKETQMKDLDVITIPSKDVVMVHEPKQKVDLTRYLENQTFRFDYAFDDSAPNEMVYRFTARPLVETIFERGMATCFAYGQTGSGKTHTMGGDFSGKNQDCSKGIYALAARDVFLMLKKPNYKKLELQVYATFFEIYSGKVFDLLNRKTKLRVLEDGKQQVQVVGLQEREVKCVEDVLKLIDIGNSCRTSGQTSANAHSSRSHAVFQIILRRKGKLHGKFSLIDLAGNERGADTSSADRQTRLEGAEINKSLLALKECIRALGRNKPHTPFRASKLTQVLRDSFIGENSRTCMIATISPGMASCENTLNTLRYANRVKELTVDPTAAGDVRPIMHHPPNQIDDLETQWGVGSSPQRDDLKLLCEQNEEEVSPQLFTFHEAVSQMVEMEEQVVEDHRAVFQESIRWLEDEKALLEMTEEVDYDVDSYATQLEAILEQKIDILTELRDKVKSFRAALQEEEQASKQINPKRPRAL
notes: source: Sf21, purified (Ni-NTA, TEV cleavage, Superdex 200)
B2: Fbxw5/Skp1 sub-complex (complex, human)
chain 1: MDEGGTPLLPDSLVYQIFLSLGPADVLAAGLVCRQWQAVSRDEFLWREQFYRYYQVARDVPRHPAAMSWYEEFQRLYDTVPCVEVQTLREHTDQVLHLSFSHSGYQFASCSKDCTVKIWSNDLTISLLHSADMRPYNWSYTQFSQFNKDDSLLLASGVFLGPHNSSSGEIAVISLDSFALLSRVRNKPYDVFGCWLTETSLISGNLHRIGDITSCSVLWLNNAFQDVESENVNVVKRLFKIQNLNASTVRTVMVADCSRFDSPDLLLEAGDPATSPCRIFDLGSDNEEVVAGPAPAHAKEGLRHFLDRVLEGRAQPQLSERMLETKVAELLAQGHTKPPERSATGAKSKYLIFTTGCLTYSPHQIGIKQILPHQMTTAGPVLGEGRGSDAFFDALDHVIDIHGHIIGMGLSPDNRYLYVNSRAWPNGAVVADPMQPPPIAEEIDLLVFDLKTMREVRRALRAHRAYTPNDECFFIFLDVSRDFVASGAEDRHGYIWDRHYNICLARLRHEDVVNSVVFSPQEQELLLTASDDATIKAWRSPRTMRVLQAPRPRPRTFFSWLASQRR
chain 2: MPSIKLQSSDGEIFEVDVEIAKQSVTIKTMLEDLGMDPVPLPNVNAAILKKVIQWCTHHKDDPPDDIPVWDQEFLKVDQGTLFELILAANYLDIKGLLDVTCKTVANMIKGKTPEEIRKTFNIKNDFTEEEEAQVRKENQWCEEK
notes: Fbxw5, human; Skp1, human, with deletion of two loops (aa 38-43 and 71-82), plasmid pFastBac1-Skp1ΔΔ; pFastBac1-Skp1ΔΔ is the Skp1 baculovirus plasmid that the methods describe; source: Sf21, co-infected with both baculoviruses, purified (Ni-NTA, Superdex 200); not shown: His tag (from the Ni-NTA purification and precipitation)

The target of the test “Fbxw5/Skp1 sub-complex” is B2. The test can be described thus: pull-down; purified proteins from Sf21 cells, 5-fold molar excess of prey over Fbxw5/Skp1 bait, mixed with competing E. coli lysate in PD buffer (20 mM HEPES pH 7.3, 110 mM K-acetate, 300 mM NaCl, 20 mM imidazole, 0.1% NP-40), precipitated via Ni-NTA agarose, SDS-PAGE. The settings on record: both partners purified.

The target of test [1] is T1, MCAK (purified from Sf21 cells). The test is described as above. The settings on record: both partners purified.

The results in this text go back to publication PMC8441365, “SCF^Fbxw5 targets kinesin‐13 proteins to facilitate ciliogenesis” (The EMBO Journal, 2021).

B1: in the test with Fbxw5/Skp1 sub-complex, the binding result was “binds”.
For B2, the binding result in test [1] is given as “binds”.
